Values quoted from earlier work in publication PMC8400902.
Read-outs that look alike come from different tables or passages of the source.

Columns and labels:
[1] = target: Amyloid beta fibril (Homo sapiens) (UniProt P05067)
[2] = target: Amyloid beta (Homo sapiens) (UniProt P05067)
[3] = target: Amyloid beta (Homo sapiens) (UniProt P05067); remark: listed apart in the source

Chain of Serum amyloid P component (P02743 20-222): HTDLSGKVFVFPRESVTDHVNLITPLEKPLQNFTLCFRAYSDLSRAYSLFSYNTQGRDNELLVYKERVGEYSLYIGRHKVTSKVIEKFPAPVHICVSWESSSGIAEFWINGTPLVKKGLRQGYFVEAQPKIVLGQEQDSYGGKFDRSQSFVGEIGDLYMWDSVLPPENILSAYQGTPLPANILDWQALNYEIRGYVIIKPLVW
Chain of Haptoglobin (P00738 19-160): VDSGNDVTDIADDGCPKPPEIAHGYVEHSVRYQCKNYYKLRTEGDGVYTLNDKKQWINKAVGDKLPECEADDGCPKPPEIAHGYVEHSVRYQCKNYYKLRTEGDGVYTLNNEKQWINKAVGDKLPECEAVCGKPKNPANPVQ
Chain of Agrin (O00468 1864-2068): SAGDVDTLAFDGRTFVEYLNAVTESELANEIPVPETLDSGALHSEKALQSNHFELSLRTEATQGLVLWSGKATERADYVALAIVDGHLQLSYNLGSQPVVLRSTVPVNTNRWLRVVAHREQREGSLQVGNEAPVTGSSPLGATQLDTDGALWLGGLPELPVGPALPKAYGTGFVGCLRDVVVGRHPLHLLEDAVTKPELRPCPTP

Q: Which Kd [1] does the source give for Agrin (from UniProt O00468) here?
A: 3.5 nM

Q: For Haptoglobin (from UniProt P00738), which Kd [2] is on record?
A: 300 nM

Q: Which Kd [3] does the source give for “Serum amyloid P component (from UniProt P02743)” here?
A: 6 nM
